From the nanobody polyreactivity screen of Harvey et al. (2022)

Assay: yeast display, Sf9 membrane polyspecificity reagent, FACS + sequencing; frameworks hold sequencing errors
Procedure, shortened: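 Nanobodies came from a synthetic yeast display library in Saccharomyces cerevisiae BJ5465, induced with galactose for 36–48 hours and stained for 1 hour at 4 °C with 10% biotinylated, detergent-solubilized Sf9 membrane reagent. Cells were enriched on streptavidin microbeads and then FACS-sorted, with low and high (top ~1%) gates set on anti-HA fluorescence for expression and streptavidin fluorescence for reagent binding. Each polyreactivity label reflects the gate a clone came from. Genes were amplified by colony PCR, sequenced by MiSeq 2 × 250 and filtered by CDR length.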

Row | Sequence | polyreactivity (PSR sort gate)
1 | QVQLVESGGCLVQAGGSLRLSCAASGLTFNKNAMGWYRQAPGKEREFVAAITRRGGSTYYADSVKGRFTISRDNAKNTVYLQMNSLKPEDTAVYYCAVYPASVNPYHYDYWGQGTQVTVSS | high polyreactivity
2 | QVQLVESGGGLVQAGGSLRLSCAASGFIFRRYAMGWYRQAPGKERELVAGISNRGGRTYYADSVKGRFTISRDNAKNTVYLQMNSLKPEDTAVYYCAADQKSGYRVSRYYVFYDYWGQGTQVTVSS | high polyreactivity
3 | QVQLVESGGGLVQAGGSLRLSCAASGSTFGYYGMGWYRQAPGKERELLAAISTGGRTNYADSVKGRFTISRDNAKNTVYLQMNSLKPEDTAVYYCAADFLSPAYRPSWYRFDYWGQGTQVTVSS | low polyreactivity
4 | QVQLVDSGRGLVQAGGSLRLSCAASGSIFYYNTMGWYRQAPVKERELVAAISSSDGSTYYADSVKGRFTISRDNAKNTVYLQMNSLKPEDTAVYYCNADLIYGEEYDYWGQGTQVTVSS | low polyreactivity
5 | QVELVESGGGLVQAGGSLRLSCAASGGTFYRYAMGWYRQAPGKEREFVASITQRGGRTYYADSVMGRFTISRDNAKNTVYLQMNSLIPEDTACYYCAAQGYKYWHGDGSDYWGQGSQVTVSS | high polyreactivity
6 | QVQLVESGVGLVQAGGSLRLSCASSGFTFYYYAMGWYRQAPGKERELVAAIDTSDGSTYYADSVKGRFTISRDNAKNTVYLQMNSLKPEDTAVYYCAAEVDWVPFLLDYWGQGTQVTVSS | low polyreactivity
7 | QVQRVESGGGIVQAGGSLRLSCAASGFIFRRYAMGWYRQAPGKERELVAAISSSGGRTTYADSVKGRFTISRDNAKNTVYLQMNSLKPEDTAVYYFNADLWPGNHDGYWGQGTQVSVSS | low polyreactivity
8 | QVQLVESGGGLVHAGGSIRLSCAASGRIFDYNVMGWYRQAQGTERELVAAISWDGDSTYYADSVKGRFTISRDNAKHTVYLQKNSLKPEDTAVYYCNRVEGRTRWADEMNYWGQGTQVTVSS | low polyreactivity
9 | QVQLVESGGGLVQAGGSLRLSCAASGSIFYGNAMGWYRPAPGKERELVAGITSGVGTNYADSVKGRFTISRDNAKNTVYLQMNSLKPEDTAVYYCAARVYRYRHYDYWGQGTQVTVSS | high polyreactivity
10 | QVQLVESGGGLVHAGGSLRLSCAASGRTFAQNAMRRYRQAPWKERELVAAIRNGGRTNYADSVKGLFTISRDNAKNTVYLQMNSLKPEDTAVYYCAVKFNNRAKYGYWGQGTQVTVSS | high polyreactivity
11 | QVQLVESGGGLVQAGGSLRLSCAASRRTFNGNAMGWYRQAPGKETELVATITSSAGTTYYADSVKGRFTISRDNAKNTVYLQMNSLKPEDTAVYYCAKRIWRSYPYRPYYSEFGYWGQGTQVTVSS | high polyreactivity
12 | QVQLVESGGGLVQAGGSLRLSCAASGSTFPSNAMGWYRQAPGKERELVAALSRGGTTNYADSVKGRFTISRDNAKNTVYLQMNCLKPEDTAVYYCAKVYKLYWYKAYRRDYWGQGTQVTVSS | high polyreactivity
13 | QVQHVESGGGLVQAGGSLRLSCAATGRTFVYYAMGWYRQPPRKESELVASISSVGTTKYADSVKGRFTISRDNAKNTVYLQMNSLKPEDTAVYYCNNADDYSTVEFDYWGQGTQVTVSS | low polyreactivity
14 | QVHLVESGGGLVQAGGSLRLSCDASGSIFSVNVMGWYRQQPGKERELVAAITSGGSTHYADSVKGRFTISRDNAKNTVYLQMNSLKPEDTAVYDCAARVWYYDYWGQGTQVTVSS | high polyreactivity
15 | QVQLVESGGGLVQAGGSLRLSCAASGLTFKRYAMGWYRQAPGKEREFVAAISAGGASTHYADSVKGRFTISRDNAKNTVYLQMNSLKPEDTAVYYCATDYRTFRPSFGYWGQGTQVTVSS | low polyreactivity
16 | QVQLVESGGGLVQAGGSLRLSCAASGITFGWYAMGWYRQAPGKERELVAAITWDGGSTYYADSVKGRFTFSRDNAKNTVYLQMNSLKPEDTAVYYCAAEYIYYYYLVARDYWGQGTQVTVSS | high polyreactivity
17 | QVQLVESGGGLVQAGGSLRLSCAASGSIFGSNALGWSRQAPGKERELVAAITWSDGSTYYADSVKGRFTISRDNAKNTVYLQMNSLKPEDTAVYVRATDYGYSWYDYWGQGTQVTVSS | low polyreactivity
18 | QVQLVESGGGLVQAGGSLRLSCAASGGTFAQYVMGWYRQAPGKERELVAAISRTGGRTYYADSVKGRFTISRDNAKNTVYLQMNSLKPEDTAVYYCARVYTSYGTPWTNYDYWGQGTQVTVSS | high polyreactivity
19 | QVQLVESGGGLVQAGGSLRLSCAASGSIFTRNVMGWSRQAPGKERELVAAITGSGGRTYYADSVKGRFTISRDNAKNTVYLQMNSLKPEDTAVYYCAKSRPGTYDYWGQGTQVTVSS | high polyreactivity
20 | QVQLEESGGGLVQAGGSLRLSCAASGNTFYKYTMGWYRQAPGKERELLAAITWSGGSTYYADSVKGRFTISRDNAKNTVYLQMNSLKPEDTAVYYCNADDYQYKTWYHLDYWGQGTQVTVSS | low polyreactivity
21 | QVQLVESGGGLVQAGGSLRLSCAASGITFIYYAMGWYRQAPGKERELVAAITWRGGSTYYADSVKGRFTISRDNAKYTVYLQMNSLKPEDTAVYYCNKGGISGRDYWGQGTQVTVSS | high polyreactivity
22 | QVQLVESGGGLVQAGGSLRLSCAASGSIYDSYDMGWYRQAPGKERELVAAITSGGSTNYADSVKGRFTISRDNAKITVYLQMNSLKPEDTAVYYCAAYYWYPVYYGYDYWGQGTQVTVSS | low polyreactivity

Row | Sequence | polyreactivity (PSR sort gate)
23 | QVQLVESGGGLVQAGGSLRLSCAASGSILLGYAMGWYRQAPGKERELVAAITFRGGSTYYADSVKGRFTISRDNAKNTVYLQMNSLKPEATAVYYCAKVWWLYSSTYLRYYWGQGTQVTVSS | low polyreactivity
24 | QVQLVESGGGLVQAGGSLRLSCAASGRIFGRYTMGWYRQAPGKERELVAAISARGGSPNYADSVKGRFTISRDNAKNTVYLQLNSLIPEDTAVYYCNTVRVHGFPIDRIYDYWGQVTQVTVSS | high polyreactivity
25 | QVQLLESGGGLVQAGGSLRLSCAASGSTFDYKSMGWYRQAPGKERELVATINDSGGNTYYADSVKGRFTISRDNAKNTVYLQMNSLKPEDTAVYYCATVGYLYTPVVVTWWDWGDYWGQGTQVTVSS | low polyreactivity
26 | QVQLVESGGGLVQAGGILRLSCAASGSILDLNAMGWYRQAPGKERELFAAISYSGDSTYYADSVKGRFTISRDNAKNTVYLQMNSLKPEDTAVYEGAAEVYGAVYDYWGQGTQVTVAS | low polyreactivity
27 | QVQLVESRRGLVQAGGSLRLSCAGSGRIVSDYAMGWYRQAPGKERELVATITSGDSTNYADSVKGRFTISRDNAKNTVYLQMNSQKPEDTAVYYCNADRFADYDYWGQGTQVTVSS | low polyreactivity
28 | QVQLVESGGCLVQAGGSLRLSCAASGITFRYYAMGWYRQAPGKERELVATISYSGGTTYYAESVKGRFTISRDNAKNTVYLQMNSLKPEDTAVYYCKAVYRYKYGYRDYDYWGQGSQVTVSS | high polyreactivity
29 | QVQLVESGGGLVQAGGSLRLSCAASGGTFSYYAMGWYRQAPGKERELVAAISKRGGSTYYADSVKGRFTISRDNAKNTVYLQMNSLKPEDTAVYYCARGYSWSVGYPRVQDMDYWGQGTQVTVSS | high polyreactivity
30 | QVQLVESGGGLVQAGGSLRLSCAASGFTFYGYAMGWYRQAPGKERELVASINRSGGTTYYADSVKGRFTISRDNAKNTVYLQMNSLKPEDTAVYYCAASYVYRFTKYYYWGQGTQVTVSS | high polyreactivity
31 | QVQLVESGGGLVQAGGSLRLSCAASGFTFHYYAMGWYRQAPGKERELVAAISRGGGNTYYADSVKGRFTISRDNAKNTVYLQMNSLKPEDTAVYYCAADSKYRFSHGLDYWGQGTQVTVSS | high polyreactivity
32 | QVQLVESGGGLVQAGGSLRLSCAASGSIFYHNSMGWYRQAPGKERELVAAITSGGSTHYADSVKGRFTISRDNAKNTVYLQMNSLKPEDTAVYYCNARDRRRTNLLDYWGQGTQVTVSS | low polyreactivity
33 | QVQLVESGGGLVQAGGSLRLSCAASGIIIDSNAMGWYRQAPGKERELVAAITSGGSTKYADSVKGRFTISRDNAKNTVYLQMNSLKPEDTAVYYCNADFRQADQCSYFYEMDSWGQGTQVTVSS | low polyreactivity
34 | QVQLVESGGGLDQAGGSLRLSCAASGSILPYYAMGWYRQAPGKERELVATITDGTDTYYADSVKGRFTFSRDNAKNTVYLQMNSLKQEDTAVYYCDRKQYWGYDYWGQGTQVTVSS | low polyreactivity
35 | QVQLVESGGGLVQAGGSLRLSCAASGYTFQPYTMGWYRQAPGKERELVAAISKSGTRTYYADSVKGRFTISRDNEKNTVYLQMNSLKPEDTAVYYCAARYTGFLFDYWGQGTQVTVSS | high polyreactivity
36 | QVQLVESGGGLVQAGGSLRLSCAASGSIFGKYALGWYRQAPGIERELVAAISGRGGGTYYADSVKGRFTISRDNAKNTVYLQVNRLNPEDTGVYYCNAYYSRLRYDYWGQGTQVTVSS | high polyreactivity
37 | QVQLVESGGGLVQAGGSLRLSCAASGFTFEYYALGWYRPAPGKERELVAAITYSGGSTYYADSVKGRFTISRDNAKITVYLQLNSLKPEDTAVYYCATESPRYRLYQSAVYGYFYWGQGTQVTVSS | high polyreactivity
38 | QVQLVESGGGLVQAGGSLRLSCAASGITFPLYAMGWYRQAPGKERELVATISGRGGSTYYADSVKGRFTISRDNAKNTVYLQMNSLKPEDTAVYYCNADFRSPYFLLSWYHSGDYWGQGTQVTGSS | low polyreactivity
39 | QVQLVESGGGLVQAGGSLPLSCAASGSIFVGYAMGWYRQAPGKERELVAAITNSGGRTYYADSVKGRFTISRDNAKNTVYLQMNSLKPEDTAVYYCNRVTGKYRYWVGFEYWGQGTQVTVSS | high polyreactivity
40 | QVQLVESGGGLVQAGGSLRLSCAASGFIFSNYAMGWYRQEPGKERELVAAISWSGTLTNYADSVKGRFTISRDNAKNTVYLQMNSLKPEDTAVYYCAAYGDYLYDYWGQGTQVTVSS | low polyreactivity
41 | QVQLVESGGGLVQAGGSLRLSCPASGRTFYLYAMGWYRQAPGKVRELVARISGGGGRTYYADSVKGRFTISRDNAKNTVYLQMNSLKPEDSAVYYCNAQSPRGFTTPRQVYPLNGYWGQGTQVTVSS | high polyreactivity
42 | QVQLVESGGGLVQAGGSLRLSCAASGSTFRQYAMGWYRQAPGKERELVAAISTNGVSTRYADSVKGRFTISRDNAKNTVYLQMNSLKPEDTAVYSCAAGYRKSYTYYRYDYWGQGTQVTVSS | high polyreactivity
43 | QVHLVESGGGLVHAGGSLRLSCAASGSTFSYYTMGWYRQAPGKERELVAAITRRGDSTYADSVKGRFTISRDNAKNTVYLQMNSLKPEDTAVYYCAADASVGVSGMDYWGQGTQVTVSS | low polyreactivity
